Experimental data from patent US11045456.

Columns and labels:
[1] = target: nuclear factor-κB (NF-κB) p65 subunit, human, wild type (UniProt Q04206)
[2] = target: p65 phosphorylation-deficient mutant S276A (UniProt Q04206)
[3] = target: p65 mutant S536A (UniProt Q04206)
Chain of p65 mutant S536A (Q04206 whole entry S536A): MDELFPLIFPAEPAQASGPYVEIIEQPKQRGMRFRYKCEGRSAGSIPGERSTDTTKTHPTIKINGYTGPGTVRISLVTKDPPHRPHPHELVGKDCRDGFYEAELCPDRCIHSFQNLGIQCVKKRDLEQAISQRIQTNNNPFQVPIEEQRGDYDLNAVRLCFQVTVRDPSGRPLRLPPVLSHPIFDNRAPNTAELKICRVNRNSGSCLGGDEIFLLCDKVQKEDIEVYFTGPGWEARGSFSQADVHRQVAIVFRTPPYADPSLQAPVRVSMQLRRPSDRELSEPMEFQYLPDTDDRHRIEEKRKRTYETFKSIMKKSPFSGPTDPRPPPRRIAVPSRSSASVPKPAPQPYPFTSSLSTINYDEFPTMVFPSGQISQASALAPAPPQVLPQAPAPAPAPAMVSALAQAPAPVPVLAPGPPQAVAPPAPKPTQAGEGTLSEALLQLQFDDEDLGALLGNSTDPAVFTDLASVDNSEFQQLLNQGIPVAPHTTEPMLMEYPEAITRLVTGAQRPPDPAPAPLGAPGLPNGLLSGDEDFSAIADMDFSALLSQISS

Chain of nuclear factor-κB (NF-κB) p65 subunit, human, wild type (Q04206 whole entry): as the sequence (Q04206 whole entry S536A) above, with A536S counted along it
Chain of p65 phosphorylation-deficient mutant S276A (Q04206 whole entry S276A): as the sequence (Q04206 whole entry S536A) above, with S276A, A536S counted along it

Substance	NF-κB promoter activity [1]	phosphorylation of p65 (Phos-tag PAGE) [1]	NF-κB promoter activity [2]	intensity ratio of PKA-Cβ-induced phosphorylation (Phos-tag PAGE) [3]	intensity ratio of PKA-Cβ-induced phosphorylation (Phos-tag PAGE) [2]
PKA-Cβ1, human	Co-transfection with PKA-Cβ1 significantly enhanced the p65-induced NF-κB promoter activity	the overexpression of PKA-Cβ1, the major subtype of Cβ in BEAS-2B cells, induced the phosphorylation of p65, which was inhibited by H89	which was abrogated by co-expressing the S276A mutant of p65	–	–
protein kinase A catalytic subunit β (PKA-Cβ), human	–	–	–	The intensity ratio of PKA-Cβ-induced phosphorylation was decreased in S276A- and S536A-transfected cells compared to the wild-type p65-transfected cells	The intensity ratio of PKA-Cβ-induced phosphorylation was decreased in S276A- and S536A-transfected cells compared to the wild-type p65-transfected cells
